Values quoted from earlier work, collected in paper PMC12672491.
Read-outs that look alike come from different tables or passages of the source.

Tests used:
[1] = molecular target: importin-α3 (Homo sapiens) (UniProt O00629)
[2] = molecular target: importin-α3 (Homo sapiens) (UniProt O00629); remark: listed apart in the source

UniProt O00629, sequence (O00629 2-521): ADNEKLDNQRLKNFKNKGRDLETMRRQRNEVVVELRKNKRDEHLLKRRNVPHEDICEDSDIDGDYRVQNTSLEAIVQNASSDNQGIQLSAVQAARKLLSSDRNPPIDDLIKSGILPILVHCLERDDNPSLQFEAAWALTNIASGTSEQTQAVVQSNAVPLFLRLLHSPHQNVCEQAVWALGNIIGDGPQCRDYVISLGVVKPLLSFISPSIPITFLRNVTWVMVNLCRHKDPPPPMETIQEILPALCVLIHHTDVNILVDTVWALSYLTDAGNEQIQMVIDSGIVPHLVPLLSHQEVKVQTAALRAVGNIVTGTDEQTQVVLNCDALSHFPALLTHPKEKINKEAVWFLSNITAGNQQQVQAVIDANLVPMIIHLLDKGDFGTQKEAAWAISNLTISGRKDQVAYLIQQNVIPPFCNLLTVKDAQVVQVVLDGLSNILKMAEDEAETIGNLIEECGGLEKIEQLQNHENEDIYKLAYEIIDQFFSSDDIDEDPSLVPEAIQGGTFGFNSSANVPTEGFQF

- Kd [1]: 800 nM
- Kd [2]: 2100 nM
Substance: Snail (from UniProt O95863)
